According to publication PMC4422553:

Biological target: His6-tagged Rev-A IN (reticuloendotheliosis virus strain A integrase) (reticuloendotheliosis virus strain A (Rev-A))
Sequence (P03360 752-1152 limits assumed): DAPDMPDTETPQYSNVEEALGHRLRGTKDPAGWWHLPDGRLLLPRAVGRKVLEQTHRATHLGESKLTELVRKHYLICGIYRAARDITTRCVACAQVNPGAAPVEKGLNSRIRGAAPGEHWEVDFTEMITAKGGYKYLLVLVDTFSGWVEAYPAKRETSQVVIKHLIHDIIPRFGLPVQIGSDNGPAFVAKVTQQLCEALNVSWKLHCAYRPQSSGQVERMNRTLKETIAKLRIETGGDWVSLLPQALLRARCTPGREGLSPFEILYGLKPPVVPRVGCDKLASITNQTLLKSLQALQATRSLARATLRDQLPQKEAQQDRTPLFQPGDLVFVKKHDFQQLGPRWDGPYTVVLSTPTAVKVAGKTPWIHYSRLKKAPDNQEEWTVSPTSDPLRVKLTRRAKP

Substance “BRD4(462-720), C-terminal fragment of human BRD4 that contains the ET domain (from UniProt O60885-2 462-720) (domain or fragment)” has a concerted integration (DNA strand transfer) activity of Rev-A IN in vitro with 0.05, 0.15, 0.35, 0.5 μM BRD4 (462–720), against the activity without BRD4 protein of 5 fold.
